Test results reported in the supplement of paper PMC11865577.

Columns and labels:
Assay in all cases: pull-down binding Z-score (relative to library population); higher = stronger binding
[1] = system: G-clamp-N3 (biotin conjugate); settings: RNA library: Library-1 (pre-miRNA loops + repeats)
Outline: (§1)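 Binding is given as a Z-score against the library mean and standard deviation, calculated after removing the beads-only signal and averaging barcoded replicate probes without their highest and lowest values. Cy5- or Cy3-end-labelled RNA library (1 μg) was heat-folded in phosphate/NaCl/KCl buffer and incubated 60 min at 25 °C with streptavidin beads bearing 100 pmol of biotin-conjugated small molecule. After three washes, RNA eluted in hot SDS was hybridised to a DNA barcode microarray for 20 h at 55.5 °C.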

[2] = system: TO-3-N3 (biotin conjugate); settings: RNA library: Library-2
Outline: as §1

[3] = system: TO-3-N3-2 (biotin conjugate); settings: RNA library: Library-2
Outline: as §1

TO-N3 (biotin conjugate) = settings: RNA library: Library-2
Outline: as §1

[4] = system: TO-N3-2 (biotin conjugate); settings: RNA library: Library-2
Outline: as §1

Row | Sequence | pull-down binding Z-score [1] | pull-down binding Z-score [2] | pull-down binding Z-score [3] | pull-down binding Z-score (TO-N3 (biotin conjugate)) | pull-down binding Z-score [4]
1 | GAUUGGUCUGUGGUCCUCUC [hsa-mir-3615] | 0.109 | -0.569 | -0.217 | -0.565 | 0.498
2 | AUGUGAUGUGAGCAGAUGGUUCUCACU [hsa-mir-6758] | -0.46 | -0.532 | -0.346 | -0.621 | 0.176
3 | GGGCCCCAAGACUCGGGGUUU [hsa-mir-4651] | -0.146 | 0.633 | -0.00221 | 0.65 | 0.197
4 | GCAUCCUUGGAAUCUGCACUCAAGGGAUGC [hsa-mir-5089] | 0.605 | 0.451 | -0.0765 | 0.358 | 0.0295
5 | GCAUAUAGAGUAUAUGC [hsa-mir-4657] | 0.625 | -0.323 | 0.0599 | -0.435 | -0.526
6 | GUUUGCCUGUUAAUGAAUUCAAAC [hsa-mir-3129] | -0.522 | 0.445 | 0.248 | 0.513 | 0.0357
7 | GUUGUUUUUAGAUAACUAAAUCGACAAC [hsa-mir-7-1] | 0.109 | 0.721 | 0.0396 | 0.59 | 0.0256
8 | CAGUACUGGUCUUAGACUG [hsa-mir-554] | 0.887 | 0.477 | 0.172 | 0.368 | 0.25
9 | CAGCACUGAGCAGGCAGUGUUGU [hsa-mir-4288] | -0.48 | -0.241 | -0.325 | -0.149 | 0.42
10 | UCGUCAGUGUUUGA [hsa-mir-8073] | -0.342 | -0.443 | -0.295 | -0.468 | -0.296
11 | CAAAUCGCCUCUUCAAUGGAUUUG [hsa-mir-133a-1] | 1.23 | 0.308 | -0.209 | 0.0594 | -0.613
12 | GUAUGAGUGGUGUGGAGUCUUCAUAA [hsa-mir-9-1] | -0.511 | 0.179 | -0.08 | 0.292 | 0.298
13 | CUGGGGUUGGAAUGUGACCCCA [hsa-mir-4654] | -0.709 | 0.425 | -0.171 | 0.541 | 0.687
14 | UGGAUCACGCCGACAACACUGGUCU [hsa-mir-4635] | -0.474 | 0.534 | 0.163 | 0.823 | 0.76
15 | CAGUCAGUAAAUAUUUUUUUGUGAAUG [hsa-mir-511] | 0.202 | -0.305 | 0.0526 | -0.146 | -0.132
16 | UGAGGUACUUCCUUC [hsa-mir-1205] | -0.28 | 0.111 | -0.247 | 0.104 | -0.169
17 | GAAGAAGAAGAAGAAGAAGAAGAAGAAGAAGAAGAAGAAGAAGAAGAA [r(GAA)16] | -1.35 | 1.7 | 3.35 | 3.53 | 3.94
18 | CAGAGGGGCUGGCAGUACUGCUCUG [hsa-mir-4649] | 2.75 | 0.999 | 0.258 | 1.08 | 1.22
19 | GCUGUUGGUCGGGUUGUGACAUUGCCCGCUGUGGAGAUAACUGC [hsa-let-7i] | -0.338 | -0.307 | 0.672 | 0.207 | 1.01

Row | Sequence | pull-down binding Z-score [1] | pull-down binding Z-score [2] | pull-down binding Z-score [3] | pull-down binding Z-score (TO-N3 (biotin conjugate)) | pull-down binding Z-score [4]
20 | ACAUUUGCAACCUGUGAAGAUGCAAAACUUUAAGUGU [hsa-mir-2053] | -0.673 | -0.699 | -0.262 | -0.853 | -0.701
21 | CUGCAGGGACUGUGACACUGAA [hsa-mir-6816] | 1.64 | -0.0339 | 0.24 | 0.85 | 1.22
22 | UGGUUGAAUAUGUGAAUGGCAUCG [hsa-mir-449a] | 0.694 | -0.0496 | 0.0695 | 0.153 | 0.601
23 | CUCGCUGGGAGGUGUGCUAUCGUCUUCCCCGGGAG [hsa-mir-3689d-1] | 0.293 | -0.0907 | -0.13 | 0.154 | 0.734
24 | CCCUUGUCUUCCCAGAG [hsa-mir-4739] | -1.22 | -0.28 | -0.41 | -0.358 | -0.0951
25 | UGGAGUCAGUAUUGGUCUGGCCA [hsa-mir-4255] | 0.114 | -0.417 | 0.104 | -0.319 | 0.502
26 | CUGGUGUUCUCACGCAAAGUGGCCAGGGUGUGGGAGACUAGA [hsa-mir-7161] | 2.32 | 0.688 | 0.556 | 1.14 | 1.34
27 | GCCUCUCUGAGCAUGCAUUCCUGAGACUC [hsa-mir-5695] | -1.38 | 0.286 | 0.0721 | 0.481 | 0.547
28 | GGCACCUACGAUACCCAGUGCC [hsa-mir-3116-2] | -0.645 | -0.264 | -0.0787 | -0.383 | 0.165
29 | UUCUGUUGUCUGAAAGAAACCAA [hsa-mir-518d] | -1.34 | -0.253 | -0.0975 | -0.0135 | 0.126
30 | GUCUGGCAUUGUCUGAUAUAC [hsa-mir-1294] | 0.671 | 1.12 | 0.316 | 1.2 | 0.408
31 | CAGCCUGGGGCAUCGGUUG [hsa-mir-5572] | -0.0198 | 2.41 | 1.31 | 2.01 | 1.02
32 | GGAGACGGGUCUUUCUC [hsa-mir-1208] | -1.52 | 0.816 | 0.466 | 1.04 | 0.758
33 | GCUGGAGUAAGGGCACGCCCGGGGCUGC [hsa-mir-4758] | 1.11 | 0.802 | 0.383 | 1.51 | 1.79
34 | GCUCUAAUAAUUUAUUCUAAUAAUAAUUUAGAUC [hsa-mir-7976] | -0.269 | -0.976 | -0.379 | -1.19 | -1.31
35 | AGAGUCCUGUUGUUGUAAGAUAGUGUCU [hsa-mir-550a-3] | 0.441 | -0.56 | -0.265 | -0.515 | -0.0681
36 | AUAGAACAUUGACAUCAACACUAG [hsa-mir-4278] | -2.05 | -0.104 | -0.0605 | -0.204 | -0.508
37 | UUUGCGUUACUUUCAAUCGUAAA [hsa-mir-548x] | -0.79 | -1.01 | -0.253 | -1.13 | -1.46
38 | GUGCUGGCAGUGGCCACGUAA [hsa-mir-4276] | 0.096 | -0.0231 | 0.0605 | 0.642 | 1.46
